Data as given in US20160222079A1 (GENOR BIOPHARMA, published 2016).

T1: GLP-1 receptor (GLP-1R) on the surface of mouse beta pancreatic tumor cells β-TC-6 (mouse, UniProt O35659 22-463)
T1 construct: whole, on cells; Endogenous receptor of the mouse cell line
T1 sequence (looked up): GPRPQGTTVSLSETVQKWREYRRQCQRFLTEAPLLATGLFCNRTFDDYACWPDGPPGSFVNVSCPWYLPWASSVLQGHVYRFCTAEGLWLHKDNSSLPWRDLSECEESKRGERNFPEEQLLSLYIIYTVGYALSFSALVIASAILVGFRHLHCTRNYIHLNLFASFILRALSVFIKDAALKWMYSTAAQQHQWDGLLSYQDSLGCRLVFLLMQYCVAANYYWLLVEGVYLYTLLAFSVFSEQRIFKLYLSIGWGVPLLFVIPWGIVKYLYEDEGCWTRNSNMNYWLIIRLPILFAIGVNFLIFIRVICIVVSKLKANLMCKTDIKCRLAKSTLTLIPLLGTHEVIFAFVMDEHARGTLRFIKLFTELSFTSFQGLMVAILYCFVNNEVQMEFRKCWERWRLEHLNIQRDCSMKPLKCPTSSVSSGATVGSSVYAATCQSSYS


What follows are binders tested against T1, GLP-1 receptor (GLP-1R) on the surface … (assay: cell ELISA on fixed β-TC-6 cells, anti-human IgG-HRP detection).

Binder | binding result
GLP-1-Fc-3 fusion protein (Fc fusion, also called GLP-1-Fc (IgG2)) HGEGTFTSDVSSYLEEQAAKEFIAWLVKGGGGGGGSGGGGSGGGGSVECPPCPAPPVAGPSVFLFPPKPKDTLMISRTPEVTCVVVDVSHEDPEVQFNWYVDGVEVHNAKTKPREEQFNSTFRVVSVLTVVHQDWLNGKEYKCKVSNKGLPAPIEKTISKTKGQPREPQVYTLPPSREEMTKNQVSLTCLVKGFYPSDIAVEWESNGQPENNYKTTPPMLDSDGSFFLYSKLTVDKSRWQQGNVFSCSVMHEALHNHYTQKSLSLSPG | binds
GLP-1-Fc-1 fusion protein (Fc fusion, also called GLP-1-Fc (IgG2)) HGEGTFTSDVSSYLEEQAAKEFIAWLVKGGGGGGGSGGGGSGGGGSVECPPCPAPPVAGPSVFLFPPKPKDTLMISRTPEVTCVVVDVSHEDPEVQFNWYVDGVEVHNAKTKPREEQFNSTFRVVSVLTVVHQDWLNGKEYKCAVSNKGLPAPIEKTISKTKGQPREPQVYTLPPSREEMTKNQVSLTCLVKGFYPSDIAVEWESNGQPENNYKTTPPMLDSDGSFFLYSKLTVDKSRWQQGNVFSCSVMHEALHNHYTQKSLSLSPGK | binds
GLP-1-Fc-2 fusion protein (Fc fusion, also called GLP-1-Fc (IgG2)) HGEGTFTSDVSSYLEEQAAKEFIAWLVKGGGGGGGSGGGGSGGGGSERKCCVECPPCPAPPVAGPSVFLFPPKPKDTLMISRTPEVTCVVVDVSHEDPEVQFNWYVDGVEVHNAKTKPREEQFNSTFRVVSVLTVVHQDWLNGKEYKCKVSNKGLPAPIEKTISKTKGQPREPQVYTLPPSREEMTKNQVSLTCLVKGFYPSDIAVEWESNGQPENNYKTTPPMLDSDGSFFLYSKLTVDKSRWQQGNVFSCSVMHEALHNHYTQKSLSLSPG | binds
